Measured values published in US20130323248A1 (SORRENTO THERAPEUTICS, published 2013).
Each block holds one binder with its values, some of them ahead of it.

Target: T1, human DLL-4 expressed on the surface of CHO-K1 cells (CHO-DLL-4 cells) (human, UniProt Q9NR61 27-685)
T1 construct: whole, on cells; also called cell surface expressed DLL-4; cellular human DLL-4
Experiment: flow cytometry (HTFC) on CHO-K1 cells stably expressing DLL-4
Description: Cells stably expressing DLL-4 were incubated with 1 μg/ml of anti-DLL-4 antibodies as indicated. The binding was analyzed by flow cytometry (HTFC, Intellicyt).
This example illustrates in vitro data for cell binding as part of an initial screen for several disclosed antibodies. CHO-K1 cells stably expressing DLL-4 (CHO-DLL-4 cells) were lifted in enzyme-free Dissociation Buffer and transferred to V-Bottom 96 well-plates (100,000 cells/well). Cells were incubated with anti-DLL-4 Antibodies in FACS buffer (PBS+2% FBS)+NaN₃ on ice for 45 min. After 2 washes in FACS buffer, a 1:1000 dilution of Phycoerythrin conjugated anti-Human IgG (γ-chain specific) was added and incubated for 30 min. Following a final wash, fluorescence intensity was measured on an Intellicyt High Throughput Flow Cytometer (HTFC). Data were analyzed using Graphpad Prism software using non-linear regression fit. Data points are shown as the median fluorescence intensity (MFI) of positively labeled cells +/− Standard Error. EC₅₀ values are reported as the concentration of antibody to achieve 50% of maximal DLL-4 antibodies binding to DLL-4 expressing cells.

- binding result: binds
B1: anti-DLL-4 antibody G6 (antibody, V domains shown)
VH: EVQLVESGGSLVQPGGSLRLSCAASGFTFSNGWMTWLRQAPGKGLEWVATIKPDGSDTAYVESVKGRFTISRDNAKNLLYLQMDSLRGDDTAVYFCARDLAYNAFDIWGQGTMVTVSS
VL: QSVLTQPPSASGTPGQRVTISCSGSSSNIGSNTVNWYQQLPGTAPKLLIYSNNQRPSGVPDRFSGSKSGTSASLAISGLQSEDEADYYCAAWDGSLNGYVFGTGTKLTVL
notes: Fully human antibody of an IgG class

- binding result: binds
B2: anti-DLL-4 antibody C3 (antibody, V domains shown)
VH: QVQLVQSGSELKKPGASVKVSCKASGYTFTSYYMHWVRQVPGQGLEWMGIINPSGGSTSYAQKFQGRVTMTRDTSTSTVYMELSSLRSEDTAVYYCATDYYDSSGYVDFDYWGQGTLVTVSS
VL: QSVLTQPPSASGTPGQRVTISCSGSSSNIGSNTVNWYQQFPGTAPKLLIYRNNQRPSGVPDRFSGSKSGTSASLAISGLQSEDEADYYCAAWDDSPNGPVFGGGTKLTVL
notes: it was detected with anti-human IgG (gamma-chain specific)
